# Laboratory results taken from doi:10.1101/2020.11.24.395475.
# B1: DNA-1 (dsDNA)
# DNA 1: GACGACCCGGAGCACA
# DNA 2: TGTGCTCCGGGTCGTC
# modifications: 5'-phosphate on forward strand
# Biological target: ARTD2WGR-RD-ART (Homo sapiens, UniProt Q9UGN5 90-583)
# Assay: X-ray crystallography
# ARTD2WGR-RD-ART, sequence (Q9UGN5 90-583): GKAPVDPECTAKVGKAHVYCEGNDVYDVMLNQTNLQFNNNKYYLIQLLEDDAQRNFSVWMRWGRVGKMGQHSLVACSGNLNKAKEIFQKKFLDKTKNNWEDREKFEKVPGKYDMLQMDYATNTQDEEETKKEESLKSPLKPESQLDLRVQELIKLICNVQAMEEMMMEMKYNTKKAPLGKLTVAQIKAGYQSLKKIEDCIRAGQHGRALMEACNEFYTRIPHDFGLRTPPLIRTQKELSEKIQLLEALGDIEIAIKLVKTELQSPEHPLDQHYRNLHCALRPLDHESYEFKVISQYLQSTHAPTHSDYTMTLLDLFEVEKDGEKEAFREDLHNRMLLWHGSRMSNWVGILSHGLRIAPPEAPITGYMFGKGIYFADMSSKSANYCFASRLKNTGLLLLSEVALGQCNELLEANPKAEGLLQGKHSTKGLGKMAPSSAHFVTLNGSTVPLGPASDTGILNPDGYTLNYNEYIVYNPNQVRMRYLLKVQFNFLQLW
binder,measurement,value
B1,binding result,binds
